From PMC9482650, “Quantitative fragmentomics allow affinity mapping of interactomes” (Nature Communications, 2022)

Experiments:
Assay in all cases: holdup assay
Parameters in all cases: key: below the threshold = too weak to quantify, mostly under pKd 3.1 to 4
Inadl_5, Q8NI35 = biological target: Inadl_5, Q8NI35
GORASP1, Q9BQQ3 = biological target: GORASP1, Q9BQQ3
LNX1_2, Q8TBB1 = biological target: LNX1_2, Q8TBB1
TJP1_3, Q07157 = biological target: TJP1_3, Q07157
HTRA2, O43464 = biological target: HTRA2, O43464
Sequence of HTRA2, O43464 (O43464 355-458): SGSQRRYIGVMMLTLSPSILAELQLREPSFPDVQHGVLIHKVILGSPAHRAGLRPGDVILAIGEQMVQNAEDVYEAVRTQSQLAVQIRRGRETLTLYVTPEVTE

PDZD2_2, O15018 = biological target: T1, PDZD2_2, O15018
T1 sequence (O15018 329-429, limits assumed, looked up): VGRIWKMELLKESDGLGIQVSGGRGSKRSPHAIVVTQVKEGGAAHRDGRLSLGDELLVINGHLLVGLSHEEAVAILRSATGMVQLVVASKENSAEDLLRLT

MAGI2_2, Q86UL8 = biological target: MAGI2_2, Q86UL8
Sequence of MAGI2_2, Q86UL8 (Q86UL8 410-522): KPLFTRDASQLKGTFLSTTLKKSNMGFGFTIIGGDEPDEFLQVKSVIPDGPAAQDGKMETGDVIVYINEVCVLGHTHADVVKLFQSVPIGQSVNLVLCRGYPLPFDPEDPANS

PDZD7_3, Q9H5P4 = biological target: T2, PDZD7_3, Q9H5P4
T2 sequence (Q9H5P4 857-944, limits assumed, looked up): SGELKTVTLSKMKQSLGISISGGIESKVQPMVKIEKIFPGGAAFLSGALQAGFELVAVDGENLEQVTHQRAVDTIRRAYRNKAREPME

APBA3_1, O96018 = biological target: T3, APBA3_1, O96018
T3 sequence (O96018 389-490, limits assumed, looked up): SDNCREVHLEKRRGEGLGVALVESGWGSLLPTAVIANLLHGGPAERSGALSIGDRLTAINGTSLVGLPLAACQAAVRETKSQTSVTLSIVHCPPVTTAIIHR

MAGI2_6, Q86UL8 = biological target: MAGI2_6, Q86UL8
Sequence of MAGI2_6, Q86UL8 (Q86UL8 1141-1229): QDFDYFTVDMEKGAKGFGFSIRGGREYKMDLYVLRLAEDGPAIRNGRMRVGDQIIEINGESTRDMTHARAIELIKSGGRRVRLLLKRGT

GRIP2_7, Q9C0E4 = biological target: GRIP2_7, Q9C0E4
Sequence of GRIP2_7, Q9C0E4 (Q9C0E4 934-1023): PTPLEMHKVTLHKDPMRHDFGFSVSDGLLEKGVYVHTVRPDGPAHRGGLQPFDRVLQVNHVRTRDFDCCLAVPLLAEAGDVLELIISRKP

FRMPD2_3, Q68DX3 = biological target: FRMPD2_3, Q68DX3
Sequence of FRMPD2_3, Q68DX3 (Q68DX3 1073-1166): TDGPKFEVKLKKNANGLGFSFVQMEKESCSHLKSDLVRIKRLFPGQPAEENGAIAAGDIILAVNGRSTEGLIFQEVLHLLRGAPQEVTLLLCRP

LIMK2, P53671 = biological target: LIMK2, P53671
Sequence of LIMK2, P53671 (P53671 143-248): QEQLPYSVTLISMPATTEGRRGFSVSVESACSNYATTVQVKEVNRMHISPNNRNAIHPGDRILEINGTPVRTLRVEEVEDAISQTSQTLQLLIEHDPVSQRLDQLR

HTRA3, P83110 = biological target: T4, HTRA3, P83110
T4 sequence (P83110 354-453, limits assumed, looked up): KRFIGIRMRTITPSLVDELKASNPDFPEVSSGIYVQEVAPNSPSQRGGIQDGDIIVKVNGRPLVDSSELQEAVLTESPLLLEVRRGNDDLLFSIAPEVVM

FRMPD1, Q5SYB0 = biological target: T5, FRMPD1, Q5SYB0
T5 sequence (Q5SYB0 52-145, limits assumed, looked up): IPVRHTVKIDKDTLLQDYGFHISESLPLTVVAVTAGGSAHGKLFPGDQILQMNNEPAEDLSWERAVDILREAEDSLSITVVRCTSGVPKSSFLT

GRIP1_4, Q9Y3R0 = biological target: T6, GRIP1_4, Q9Y3R0
T6 sequence (Q9Y3R0 467-571, limits assumed, looked up): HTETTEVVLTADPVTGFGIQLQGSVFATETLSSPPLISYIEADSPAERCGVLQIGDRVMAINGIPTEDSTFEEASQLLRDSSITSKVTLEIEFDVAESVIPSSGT

TJP3_3, O95049 = biological target: T7, TJP3_3, O95049
T7 sequence (O95049 375-456, limits assumed, looked up): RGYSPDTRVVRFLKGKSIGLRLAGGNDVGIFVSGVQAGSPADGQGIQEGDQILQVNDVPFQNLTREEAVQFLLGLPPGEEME

NHERF4_4, Q86UT5 = biological target: NHERF4_4, Q86UT5
Sequence of NHERF4_4, Q86UT5 (Q86UT5 464-550): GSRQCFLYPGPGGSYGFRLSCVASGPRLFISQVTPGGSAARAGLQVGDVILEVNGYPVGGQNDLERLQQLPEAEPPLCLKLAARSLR

GRIP1_5, Q9Y3R0 = biological target: T8, GRIP1_5, Q9Y3R0
T8 sequence (Q9Y3R0 568-668, limits assumed, looked up): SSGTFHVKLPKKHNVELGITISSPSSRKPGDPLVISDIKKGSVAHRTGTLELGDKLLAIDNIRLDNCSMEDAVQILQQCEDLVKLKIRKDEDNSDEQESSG

SNTG2, Q9NY99 = biological target: T9, SNTG2, Q9NY99
T9 sequence (Q9NY99 68-166, limits assumed, looked up): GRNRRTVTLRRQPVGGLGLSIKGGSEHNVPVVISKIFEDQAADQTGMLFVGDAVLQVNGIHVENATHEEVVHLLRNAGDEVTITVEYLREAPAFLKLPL

HTRA1, Q92743 = biological target: HTRA1, Q92743
Sequence of HTRA1, Q92743 (Q92743 360-477): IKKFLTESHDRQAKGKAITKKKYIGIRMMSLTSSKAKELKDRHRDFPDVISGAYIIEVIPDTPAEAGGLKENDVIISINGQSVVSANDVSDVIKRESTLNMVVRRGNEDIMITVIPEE

DLG3_2, Q92796 = biological target: T10, DLG3_2, Q92796
T10 sequence (Q92796 221-321, limits assumed, looked up): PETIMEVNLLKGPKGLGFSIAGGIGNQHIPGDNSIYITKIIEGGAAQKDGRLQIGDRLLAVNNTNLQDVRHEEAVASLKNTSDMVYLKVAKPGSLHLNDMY

FRMPD4, Q14CM0 = biological target: FRMPD4, Q14CM0
Sequence of FRMPD4, Q14CM0 (Q14CM0 67-160): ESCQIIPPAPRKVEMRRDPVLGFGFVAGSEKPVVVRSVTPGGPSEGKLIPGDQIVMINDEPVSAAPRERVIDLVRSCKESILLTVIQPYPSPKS

IL16_3, Q14005 = biological target: IL16_3, Q14005
Sequence of IL16_3, Q14005 (Q14005 1107-1207): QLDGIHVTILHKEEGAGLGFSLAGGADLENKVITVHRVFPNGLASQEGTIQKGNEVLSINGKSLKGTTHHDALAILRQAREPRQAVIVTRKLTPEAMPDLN

Inadl_3, Q8NI35 = biological target: Inadl_3, Q8NI35
Sequence of Inadl_3, Q8NI35 (Q8NI35 359-469): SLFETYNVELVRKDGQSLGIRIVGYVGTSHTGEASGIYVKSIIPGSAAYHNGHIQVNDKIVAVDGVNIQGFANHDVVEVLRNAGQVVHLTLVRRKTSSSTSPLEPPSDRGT

SIPA1L2, Q9P2F8 = biological target: T11, SIPA1L2, Q9P2F8
T11 sequence (Q9P2F8 945-1036, limits assumed, looked up): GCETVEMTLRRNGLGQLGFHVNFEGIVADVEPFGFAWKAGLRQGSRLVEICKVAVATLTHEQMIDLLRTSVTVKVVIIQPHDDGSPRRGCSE

[1] = plain residues with an end cap or a label only (N-terminal biotin on a linker: ahx)
[2] = plain residues with an end cap or a label only (N-terminal biotin on a linker: ttds)
[3] = plain residues with an end cap or a label only (N-terminal biotin on a linker: ado-ado)

Sequence of Inadl_5, Q8NI35 (Q8NI35 673-780): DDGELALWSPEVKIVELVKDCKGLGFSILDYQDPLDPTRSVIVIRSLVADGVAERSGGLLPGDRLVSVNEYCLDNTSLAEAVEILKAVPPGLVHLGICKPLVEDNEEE
Sequence of LNX1_2, Q8TBB1 (Q8TBB1 371-470): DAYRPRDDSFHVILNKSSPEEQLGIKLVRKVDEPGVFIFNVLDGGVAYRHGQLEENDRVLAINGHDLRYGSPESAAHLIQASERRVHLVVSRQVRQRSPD
Sequence of TJP1_3, Q07157 (Q07157 416-512): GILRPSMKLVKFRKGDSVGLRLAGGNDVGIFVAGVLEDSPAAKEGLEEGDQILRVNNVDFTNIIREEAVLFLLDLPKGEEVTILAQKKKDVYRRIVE
Sequence of GORASP1, Q9BQQ3 (Q9BQQ3 1-208): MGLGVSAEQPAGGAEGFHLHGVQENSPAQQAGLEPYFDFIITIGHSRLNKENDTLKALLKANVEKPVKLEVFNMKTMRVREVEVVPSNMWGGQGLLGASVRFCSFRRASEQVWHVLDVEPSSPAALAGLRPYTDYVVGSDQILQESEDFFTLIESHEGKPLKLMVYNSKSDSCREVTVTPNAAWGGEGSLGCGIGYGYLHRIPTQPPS

B1: ADRB2, P07550 (peptide)
chain: RNCSTNDSLL
Inadl_5, Q8NI35; [1]
  pKd: below the threshold
GORASP1, Q9BQQ3; [1]
  pKd: below the threshold
LNX1_2, Q8TBB1; [1]
  pKd: below the threshold
TJP1_3, Q07157; [1]
  pKd: below the threshold
HTRA2, O43464; [1]
  pKd: below the threshold
PDZD2_2, O15018; [1]
  pKd: below the threshold
MAGI2_2, Q86UL8; [1]
  pKd: below the threshold
PDZD7_3, Q9H5P4; [1]
  pKd: 3.57
APBA3_1, O96018; [1]
  pKd: below the threshold
MAGI2_6, Q86UL8; [1]
  pKd: below the threshold
GRIP2_7, Q9C0E4; [1]
  pKd: below the threshold
FRMPD2_3, Q68DX3; [1]
  pKd: below the threshold
LIMK2, P53671; [1]
  pKd: below the threshold
HTRA3, P83110; [1]
  pKd: below the threshold
FRMPD1, Q5SYB0; [1]
  pKd: below the threshold
GRIP1_4, Q9Y3R0; [1]
  pKd: below the threshold
TJP3_3, O95049; [1]
  pKd: below the threshold
NHERF4_4, Q86UT5; [1]
  pKd: below the threshold
GRIP1_5, Q9Y3R0; [1]
  pKd: below the threshold
SNTG2, Q9NY99; [1]
  pKd: below the threshold
HTRA1, Q92743; [1]
  pKd: 3.62
DLG3_2, Q92796; [1]
  pKd: below the threshold
FRMPD4, Q14CM0; [1]
  pKd: 3.64
IL16_3, Q14005; [1]
  pKd: below the threshold
Inadl_3, Q8NI35; [1]
  pKd: 3.73
SIPA1L2, Q9P2F8; [1]
  pKd: below the threshold

B2: DGKK, Q5KSL6 (peptide)
chain: DPLTPSRSQL
Inadl_5, Q8NI35; [2]
  pKd: below the threshold
GORASP1, Q9BQQ3; [2]
  pKd: below the threshold
LNX1_2, Q8TBB1; [2]
  pKd: below the threshold
TJP1_3, Q07157; [2]
  pKd: below the threshold
HTRA2, O43464; [2]
  pKd: below the threshold
PDZD2_2, O15018; [2]
  pKd: below the threshold
MAGI2_2, Q86UL8; [2]
  pKd: below the threshold
PDZD7_3, Q9H5P4; [2]
  pKd: below the threshold
APBA3_1, O96018; [2]
  pKd: below the threshold
MAGI2_6, Q86UL8; [2]
  pKd: below the threshold
GRIP2_7, Q9C0E4; [2]
  pKd: 3.64
FRMPD2_3, Q68DX3; [2]
  pKd: below the threshold
LIMK2, P53671; [2]
  pKd: below the threshold
HTRA3, P83110; [2]
  pKd: below the threshold
FRMPD1, Q5SYB0; [2]
  pKd: 3.73
GRIP1_4, Q9Y3R0; [2]
  pKd: below the threshold
TJP3_3, O95049; [2]
  pKd: below the threshold
NHERF4_4, Q86UT5; [2]
  pKd: below the threshold
GRIP1_5, Q9Y3R0; [2]
  pKd: below the threshold
SNTG2, Q9NY99; [2]
  pKd: 3.84
HTRA1, Q92743; [2]
  pKd: below the threshold
DLG3_2, Q92796; [2]
  pKd: below the threshold
FRMPD4, Q14CM0; [2]
  pKd: below the threshold
IL16_3, Q14005; [2]
  pKd: below the threshold
Inadl_3, Q8NI35; [2]
  pKd: below the threshold
SIPA1L2, Q9P2F8; [2]
  pKd: below the threshold

B3: NHERF3, Q5T2W1 (peptide)
chain: SSSNSEDTEM
Inadl_5, Q8NI35; [1]
  pKd: below the threshold
GORASP1, Q9BQQ3; [1]
  pKd: below the threshold
LNX1_2, Q8TBB1; [1]
  pKd: below the threshold
TJP1_3, Q07157; [1]
  pKd: below the threshold
HTRA2, O43464; [1]
  pKd: below the threshold
PDZD2_2, O15018; [1]
  pKd: below the threshold
MAGI2_2, Q86UL8; [1]
  pKd: below the threshold
PDZD7_3, Q9H5P4; [1]
  pKd: below the threshold
APBA3_1, O96018; [1]
  pKd: below the threshold
MAGI2_6, Q86UL8; [1]
  pKd: below the threshold
GRIP2_7, Q9C0E4; [1]
  pKd: below the threshold
FRMPD2_3, Q68DX3; [1]
  pKd: below the threshold
LIMK2, P53671; [1]
  pKd: below the threshold
HTRA3, P83110; [1]
  pKd: below the threshold
FRMPD1, Q5SYB0; [1]
  pKd: below the threshold
GRIP1_4, Q9Y3R0; [1]
  pKd: below the threshold
TJP3_3, O95049; [1]
  pKd: below the threshold
NHERF4_4, Q86UT5; [1]
  pKd: below the threshold
GRIP1_5, Q9Y3R0; [1]
  pKd: below the threshold
SNTG2, Q9NY99; [1]
  pKd: below the threshold
HTRA1, Q92743; [1]
  pKd: below the threshold
DLG3_2, Q92796; [1]
  pKd: below the threshold
FRMPD4, Q14CM0; [1]
  pKd: below the threshold
IL16_3, Q14005; [1]
  pKd: below the threshold
Inadl_3, Q8NI35; [1]
  pKd: below the threshold
SIPA1L2, Q9P2F8; [1]
  pKd: below the threshold

B4: NRXN3_rs746444206, Q9Y4C0 (peptide)
chain: QKNKDKEYYV
Inadl_5, Q8NI35; [3]
  pKd: 4.55
GORASP1, Q9BQQ3; [3]
  pKd: 4.12
LNX1_2, Q8TBB1; [3]
  pKd: 4
TJP1_3, Q07157; [3]
  pKd: below the threshold
HTRA2, O43464; [3]
  pKd: 3.51
PDZD2_2, O15018; [3]
  pKd: 4.5
MAGI2_2, Q86UL8; [3]
  pKd: 4.02
PDZD7_3, Q9H5P4; [3]
  pKd: below the threshold
APBA3_1, O96018; [3]
  pKd: below the threshold
MAGI2_6, Q86UL8; [3]
  pKd: below the threshold
GRIP2_7, Q9C0E4; [3]
  pKd: 4.8
FRMPD2_3, Q68DX3; [3]
  pKd: 4.23
LIMK2, P53671; [3]
  pKd: below the threshold
HTRA3, P83110; [3]
  pKd: 4.64
FRMPD1, Q5SYB0; [3]
  pKd: below the threshold
GRIP1_4, Q9Y3R0; [3]
  pKd: below the threshold
TJP3_3, O95049; [3]
  pKd: 3.86
NHERF4_4, Q86UT5; [3]
  pKd: below the threshold
GRIP1_5, Q9Y3R0; [3]
  pKd: below the threshold
SNTG2, Q9NY99; [3]
  pKd: below the threshold
HTRA1, Q92743; [3]
  pKd: 5.32
DLG3_2, Q92796; [3]
  pKd: below the threshold
FRMPD4, Q14CM0; [3]
  pKd: 4.18
IL16_3, Q14005; [3]
  pKd: below the threshold
Inadl_3, Q8NI35; [3]
  pKd: 4
SIPA1L2, Q9P2F8; [3]
  pKd: below the threshold

B5: ATP2B1, P20020 (peptide)
chain: SPLHSLETSL
Inadl_5, Q8NI35; [2]
  pKd: below the threshold
GORASP1, Q9BQQ3; [2]
  pKd: 3.61
LNX1_2, Q8TBB1; [2]
  pKd: below the threshold
TJP1_3, Q07157; [2]
  pKd: below the threshold
HTRA2, O43464; [2]
  pKd: below the threshold
PDZD2_2, O15018; [2]
  pKd: below the threshold
MAGI2_2, Q86UL8; [2]
  pKd: 3.86
PDZD7_3, Q9H5P4; [2]
  pKd: 4.63
APBA3_1, O96018; [2]
  pKd: 3.47
MAGI2_6, Q86UL8; [2]
  pKd: 4.24
GRIP2_7, Q9C0E4; [2]
  pKd: below the threshold
FRMPD2_3, Q68DX3; [2]
  pKd: below the threshold
LIMK2, P53671; [2]
  pKd: below the threshold
HTRA3, P83110; [2]
  pKd: below the threshold
FRMPD1, Q5SYB0; [2]
  pKd: below the threshold
GRIP1_4, Q9Y3R0; [2]
  pKd: below the threshold
TJP3_3, O95049; [2]
  pKd: below the threshold
NHERF4_4, Q86UT5; [2]
  pKd: below the threshold
GRIP1_5, Q9Y3R0; [2]
  pKd: below the threshold
SNTG2, Q9NY99; [2]
  pKd: 4.66
HTRA1, Q92743; [2]
  pKd: 3.75
DLG3_2, Q92796; [2]
  pKd: 4.35
FRMPD4, Q14CM0; [2]
  pKd: 4.45
IL16_3, Q14005; [2]
  pKd: below the threshold
Inadl_3, Q8NI35; [2]
  pKd: 3.51
SIPA1L2, Q9P2F8; [2]
  pKd: below the threshold
